Data reported in article PMC9856709 (Cancers, 2023).
Entries after “also recorded” stand apart in the source; their conditions may differ. Numbered stars: 1 amine (or outer) side, 2 acyl side, 3 side chain; on linkers, the order of the positions; unused ones are H or OH. Square brackets hold non-standard residues; d marks the D form. Peptide text beside a SMILES is read from it. * marks the point of attachment. NOTA = O=C(O)CN1CCN(CC(=O)O)CCN(CC(=O)*)CC1; γGlu = O=C(O)[C@H](CCC(=O)[*:2])N[*:1]; Sta = CC(C)C[C@H](N)[C@@H](O)CC(=O)O; AEEA = NCCOCCOCC(=O)O; Aoc = NCCCCCCCC(=O)O; CO = O=C([*:1])[*:2]

Columns and labels:
PC3-pip cell line = assay: Cellular processing in PC3-pip cells; type: cell-based, human; conditions: 1 nM, 37 °C
Experimental: In vitro experiments were carried out using the PSMA- and GRPR-expressing human prostate carcinoma PC3-pip cell line (obtained from Prof. Martin Pomper, The Johns Hopkins University, Baltimore, MD, USA). Cells (5–7 × 10^5 cells/vial) were seeded 24–48 h before the experiments. All experiments were performed in triplicate.
At selected time points (1 and 3 h), cells were collected, and the total cell-associated activity was measured using an automated gamma counter. At 3 h, the membrane-bound and internalised fractions were collected separately using the acid and base method described earlier.

in vivo = conditions: BALB/c nu/nu, mouse, iv, 40 pmol, total radioactivity
Experimental: (§1) Ex vivo experiments and in vivo imaging were carried out using BALB/c nu/nu mice bearing PC3-pip xenografts. All studies were performed according to the guidelines of the Declaration of Helsinki and approved by the Ethics Committee for Animal Research in Uppsala, Sweden (5.8.18-00473/2021. Approved on 26 February 2021).
(§2) There were 4 mice in each group. At 1 and 3 h pi, mice were sacrificed after an intraperitoneal injection of a Ketalar–Rompun solution (20 μL/g body weight) consisting of Ketalar (10 mg/mL) and Rompun (1 mg/mL), followed by heart puncture.

PC3-pip xenografts [1] = assay: in vivo; conditions: non-blocked
Experimental: as §1, §2

[2] = Description: The average animal weight was 27.4 ± 1.6 g and OLINDA/EXM 1.0 software (adult male phantom) was used to estimate the absorbed doses.
The well-established “percent kg/g method” using Equation (1) was used to upscale the uptake values in mice to be able to evaluate the dosimetry in humans. The organ weights of the reference adult male were used to calculate the organ uptake in humans and the area under the curve of exponential fits for human time–activity curves was used to calculate the residence times. (%IA/organ)human = [(%IA/g)animal × (kBqTBweight)animal × (gorgan/(kBqTBweight)human](1)

Wistar rats = assay: Acute and subacute toxicity in rats; type: in vivo
Experimental: The animals were kept in a barrier-type animal facility under standard housing conditions. […] The dose of heterodimer for toxicological studies was calculated based on cross-species dose conversion using body surface area scaling: the maximum dose for the clinical study was chosen to be 300 µg of heterodimer per 75 kg patient, or […], which corresponds to [(4 µg × 427 g)/1000 g] × 6 = 10.3 µg per rat. Ten rats from each group were euthanized at 24 h pi and five rats at 28 days pi. The body weight of the rats was controlled at baseline, at 24 h after administration for the acute toxicity group, and every second day for the subacute toxicity group. Biochemical blood tests on alanine aminotransferase, albumin, aspartate aminotransferase, bilirubin, glucose, creatinine, urea, the total amount of proteins, cholesterol, and ALT were performed before the euthanasia. Necropsy of the experimental rats was performed, and the weights of the brain, heart, lungs, liver, adrenal glands, kidneys, spleen, testes, and thymus were measured.

PC3-pip xenografts [3] = assay: nanoScan PET/CT imaging of PC3-pip xenografted mice; type: in vivo, BALB/c nu/nu mice; conditions: 100 pmol, 8 MBq, n = 2
Experimental: Immediately after the PET scan, a CT scan was performed using a nanoScan SPECT/CT camera (Mediso Medical Imaging System Ltd., Budapest, Hungary) with the same bed. […] Imaging of the non-blocked (n = 2) and the PSMA/GRPR-blocked (n = 2) groups was performed at 1 and 3 h pi. Reconstruction of the PET/CT scans was conducted using Nucline nanoScan 3.04.014.0000 software.

[4] = Stability in PBS and EDTA challenge; type: physicochemical; conditions: 1 h, ITLC
Experimental: After 1 h, samples were taken from all solutions and analysed by ITLC.

[5] = 3 h, acid and base method, triplicate
[6] = estimated for adult male from mouse ex vivo data, percent kg/g method, OLINDA/EXM 1.0

Structure (SMILES): CC(C)C[C@H](NC(=O)C[C@H](O)[C@H](CC(C)C)NC(=O)[C@H](Cc1c[nH]cn1)NC(=O)CNC(=O)[C@@H](NC(=O)[C@H](C)NC(=O)[C@H](Cc1c[nH]c2ccccc12)NC(=O)[C@H](CCC(N)=O)NC(=O)[C@@H](Cc1ccccc1)NC(=O)COCCOCCNC(=O)[C@H](CCCCNC(=O)CN1CCN(CC(=O)O)CCN(CC(=O)O)CC1)NC(=O)[C@H](Cc1ccccc1)NC(=O)CCCCCCCNC(=O)CC[C@H](NC(=O)N[C@@H](CCC(=O)O)C(=O)O)C(=O)O)C(C)C)C(N)=O [[^68Ga]Ga-BQ7812, metal not drawn] ({Glu-CO-γGlu-Aoc}-FK(NOTA)[AEEA][dF]QWAVGH[Sta]L-NH2)
- Binding to the targets in cellular processing (PC3-pip cell line; 1 and 3 h): rapid binding
- Internalised fraction of total cell-associated activity (PC3-pip cell line; [5]): approximately 20%
- Membrane-bound fraction of total cell-associated activity (PC3-pip cell line; [5]): ~80%
- tissue uptake at 1 h (in vivo; blood): 0.86 ± 0.16 %ID/g
- tissue uptake at 3 h (in vivo; blood): 0.16 ± 0.02 %ID/g
- tissue uptake at 1 h (in vivo; bone): 0.31 ± 0.06 %ID/g
- tissue uptake at 3 h (in vivo; bone): 0.13 ± 0.03 %ID/g
- tissue uptake at 1 h (in vivo; kidneys): 45.3 ± 16.6 %ID/g
- tissue uptake at 1 h (in vivo; liver): 0.89 ± 0.1 %ID/g
- tissue uptake at 3 h (in vivo; liver): 0.57 ± 0.03 %ID/g
- tissue uptake at 1 h (in vivo; lungs): 0.86 ± 0.15 %ID/g
- tissue uptake at 3 h (in vivo; lungs): 0.2 ± 0.05 %ID/g
- tissue uptake at 1 h (in vivo; muscle): 0.21 ± 0.04 %ID/g
- tissue uptake at 3 h (in vivo; muscle): 0.05 ± 0.01 %ID/g
- tissue uptake at 1 h (in vivo; pancreas): 5.6 ± 0.7 %ID/g
- tissue uptake at 3 h (in vivo; pancreas): 0.6 ± 0.16 %ID/g
- tissue uptake at 1 h (in vivo; remaining organs (other than tumour, kidneys, pancreas)): ≤ 1 %ID/g
- tissue uptake at 1 h (in vivo; salivary glands): 0.44 ± 0.07 %ID/g
- tissue uptake at 3 h (in vivo; salivary glands): 0.14 ± 0.03 %ID/g
- tissue uptake at 1 h (in vivo; small intestine): 1.33 ± 0.31 %ID/g
- tissue uptake at 3 h (in vivo; small intestine): 0.2 ± 0.02 %ID/g
- tissue uptake at 1 h (in vivo; spleen): 0.92 ± 0.16 %ID/g
- tissue uptake at 3 h (in vivo; spleen): 0.33 ± 0.03 %ID/g
- tissue uptake at 3 h (in vivo; tumour (PC3-pip xenograft)): 5.68 ± 0.62 %ID/g
- tissue to tissue ratio at 3 h (in vivo; tumour (PC3-pip) / bone): 47 ± 13
- tissue to tissue ratio at 3 h (in vivo; tumour (PC3-pip) / kidneys): 0.53 ± 0.07
- tissue to tissue ratio at 3 h (in vivo; tumour (PC3-pip) / liver): 9.9 ± 0.8
- tissue to tissue ratio at 3 h (in vivo; tumour (PC3-pip) / muscle): 116 ± 22
- tissue to tissue ratio at 3 h (in vivo; tumour (PC3-pip) / pancreas): 10 ± 4
- tissue to tissue ratio at 3 h (in vivo; tumour (PC3-pip) / small intestine): 28 ± 4
- tissue to tissue ratio at 3 h (in vivo; tumour (PC3-pip) / spleen): 18 ± 3
- tissue uptake at 1 h (in vivo; tumour (PC3-pip)): 10.4 ± 0.97 %ID/g
- tissue uptake at 3 h (in vivo; tumour (PC3-pip)): 5.7 ± 0.6 %ID/g
- tissue to tissue ratio at 1 h (in vivo; tumour / blood): 13 ± 3
- tissue to tissue ratio at 3 h (in vivo; tumour / blood): 35 ± 4
- tissue to tissue ratio at 1 h (in vivo; tumour / bone): 35 ± 8
- tissue to tissue ratio at 1 h (in vivo; tumour / kidneys): 0.3 ± 0.1
- tissue to tissue ratio at 1 h (in vivo; tumour / liver): 11.8 ± 1
- tissue to tissue ratio at 1 h (in vivo; tumour / lungs): 12 ± 3
- tissue to tissue ratio at 3 h (in vivo; tumour / lungs): 29 ± 5
- tissue to tissue ratio at 1 h (in vivo; tumour / muscle): 52 ± 12
- tissue to tissue ratio at 1 h (in vivo; tumour / pancreas): 1.9 ± 0.2
- tissue to tissue ratio at 1 h (in vivo; tumour / salivary glands): 24 ± 3
- tissue to tissue ratio at 3 h (in vivo; tumour / salivary glands): 40 ± 8
- tissue to tissue ratio at 1 h (in vivo; tumour / small intestine): 8 ± 2
- tissue to tissue ratio at 1 h (in vivo; tumour / spleen): 12 ± 3
- Activity uptake in the kidneys at 3 h pi as % of uptake at 1 h pi (PC3-pip xenografts [1]): 26%
- Activity uptake in the pancreas at 3 h pi as % of uptake at 1 h pi (PC3-pip xenografts [1]): 11%
- Activity uptake in the tumour at 3 h pi as % of uptake at 1 h pi (PC3-pip xenografts [1]): 55%
- Total dose per scan ([2]; after injection of 200–300 MBq, from estimated effective dose): 1.66–2.49 mSv
- Absorbed doses in the remaining organs and tissues (other than kidneys, heart wall, lower large intestine wall) ([2]; estimated for adult male from mouse ex vivo data): below 0.02 mSv/MBq
- Absorbed Dose, Adrenals [2, 6]: 0.0043 mGy/MBq
- Absorbed Dose, Brain [2, 6]: 0.0007 mGy/MBq
- Absorbed Dose, Breasts [2, 6]: 0.0030 mGy/MBq
- Absorbed Dose, Gallbladder wall [2, 6]: 0.0042 mGy/MBq
- Absorbed Dose, Heart wall [2, 6]: 0.0265 mGy/MBq
- Absorbed Dose, Kidneys [2, 6]: 0.0660 mGy/MBq
- Absorbed Dose, Liver [2, 6]: 0.0044 mGy/MBq
- Absorbed Dose, Lower large intestine wall [2, 6]: 0.0250 mGy/MBq
- Absorbed Dose, Lungs [2, 6]: 0.0041 mGy/MBq
- Absorbed Dose, Muscle [2, 6]: 0.0024 mGy/MBq
- Absorbed Dose, Osteogenic cells [2, 6]: 0.0080 mGy/MBq
- Absorbed Dose, Ovaries [2, 6]: 0.0045 mGy/MBq
- Absorbed Dose, Pancreas [2, 6]: 0.0186 mGy/MBq
- Absorbed Dose, Red marrow [2, 6]: 0.0057 mGy/MBq
- Absorbed Dose, Skin [2, 6]: 0.0026 mGy/MBq
- Absorbed Dose, Small intestine wall [2, 6]: 0.0199 mGy/MBq
- Absorbed Dose, Spleen [2, 6]: 0.0033 mGy/MBq
- Absorbed Dose, Stomach wall [2, 6]: 0.0048 mGy/MBq
- Absorbed Dose, Testes [2, 6]: 0.0030 mGy/MBq
- Absorbed Dose, Thymus [2, 6]: 0.0038 mGy/MBq
- Absorbed Dose, Thyroid [2, 6]: 0.0030 mGy/MBq
- Absorbed Dose, Total body [2, 6]: 0.0044 mGy/MBq
- Absorbed Dose, Upper large intestines LI wall [2, 6]: 0.0111 mGy/MBq
- Absorbed Dose, Urinary bladder wall [2, 6]: 0.0036 mGy/MBq
- Absorbed Dose, Uterus [2, 6]: 0.0042 mGy/MBq
- Effective dose [2, 6]: 0.0083 mSv/MBq
- Effective dose equivalent [2, 6]: 0.0124 mSv/MBq
- Clinical or biochemical parameters in toxicological studies (Wistar rats; single iv bolus 10.3 μg (10 MBq for labelled), 24 h and 28 days pi, vs control groups): no changes
- Toxicity conclusion (Wistar rats; single iv bolus 10.3 μg, acute (24 h) and subacute (28 days)): absence of toxicity; also recorded: safe toxicological profile
- PET/CT visualisation, non-blocked (PC3-pip xenografts [3]; 1 and 3 h pi): elevated activity uptake could be visualised in the kidneys and the tumour
- PET/CT visualisation of tumour upon blocking of PSMA and GRPR (PC3-pip xenografts [3]; co-injected NOTA-PEG2-RM26 and PSMA-11 (5 nmol each)): the tumour is no longer visualised
- Release of free gallium-68 under EDTA challenge ([4]; 1000-fold molar excess EDTA): minor release
- Release of free gallium-68 in PBS ([4]; PBS, room temperature): minor release
